As usually defined, the IC50 is the concentration that inhibits the measured activity by half. Read a high IC50 as a need for much substance.

Where two headings read alike, the source gives them in different places.

Consider four molecules from US20160009772A1 (Hoffmann-La Roche, published 2016).

In assay [1] the target is T1, IRF5(222-467, S430D), S430D phosphomimetic construct of IRF5 (222-467) (human, UniProt Q13568-4 222-467).
T1 construct: range 222-467; Used in the dimer assay in two tagged forms at once (biotin tag and His tag); S and R stand 10 residues further (S440, R363), so the construct is probably numbered on an isoform 10 residues shorter; also called mutant S430D (222-467); biotin tag IRF5(222-467, S430D)
Kind of assay: TR-FRET IRF5 dimerization inhibition, S430D (222-467), peptide titrated. For orientation: TR-FRET usually uses a lanthanide donor and a delayed reading to cut background.
Description: (§1) The samples were incubated at room temperature for 20 min. Seventeen microliters per well of detection solution containing 10 nM europium (Eu) conjugated streptavidin and 80 nM allophycocyanin (APC) conjugated anti-His antibody (Columbia Biosciences) in Assay Buffer (without DTT) were added. The samples were incubated at room temperature for 60 min followed by overnight incubation at 40 C and 30 ul per well were transferred to 384-well polystyrene plates (Matrix, Thermal Scientific) in duplicates. […] The data were processed in Excel XLfit and the IC50 values were calculated using a nonlinear curve-fitting algorithm (four parameter equation). The data represent an average of 3 independent experiments (each run in triplicates) and the reported errors represent standard deviation (s.d.).

In assay [2] the target is T2, N-terminal His (six histadine)-tagged IRF5 (222-425) SEQ ID NO 22 (human, UniProt Q13568 222-425).
T2 construct: also called His tag IRF5(222-425); his-tagged IRF5 (222-425, lacking helix 5 and unable to homodimerize)
The experiment in a line: direct binding TR-FRET, FITC peptide and Tb anti-His antibody (FIG. 2).
Description: Aliquots (1.6 μl per well) of 4 μM FITC peptide solution in DMSO were added into 96-well polypropylene plates (Corning). […] The samples were incubated at room temperature for 30 min. […] Samples were incubated at 4° C. for overnight and 18 μl per well were transferred to small volume 384-well polystyrene plates (Corning) in duplicates.

The target in assay [3] is T1, IRF5(222-467, S430D), S430D …. Kind of assay: TR-FRET IRF5 dimerization inhibition, S430D (222-467), peptide titrated. This is another data set of the same source.
Description: as §1

T1 sequence (Q13568 232-477 S440D limits assumed): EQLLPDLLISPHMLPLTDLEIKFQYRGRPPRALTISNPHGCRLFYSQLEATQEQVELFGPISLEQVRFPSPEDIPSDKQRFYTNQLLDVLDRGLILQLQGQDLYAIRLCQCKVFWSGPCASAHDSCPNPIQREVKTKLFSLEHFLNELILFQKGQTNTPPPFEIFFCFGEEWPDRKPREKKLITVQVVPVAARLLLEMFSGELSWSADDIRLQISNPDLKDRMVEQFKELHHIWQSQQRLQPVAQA
T2 sequence (Q13568 other isoform, or with tags, fused parts or gaps limits assumed): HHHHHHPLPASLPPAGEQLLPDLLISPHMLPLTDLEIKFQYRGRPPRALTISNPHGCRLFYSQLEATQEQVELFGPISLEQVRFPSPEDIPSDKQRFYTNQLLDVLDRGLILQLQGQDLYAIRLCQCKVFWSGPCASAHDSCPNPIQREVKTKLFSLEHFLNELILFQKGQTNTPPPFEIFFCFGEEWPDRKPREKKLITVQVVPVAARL

Ac-IRLQISNPDLKDLMVQWFKDGGPSSGAPPPS-NH2 [Ac-IRLQISNPDLKDLMVQWFKDGGPSSGAPPPS-NH2 (SEQ ID NO: 9)]: the IC50 in assay [1] was found to be 2420 nM.
In turn, Ac-PFPPLPIGEEAPKDDMVRFFKDLHQYLNVV-NH2 [Ac-PFPPLPIGEEAPKDDMVRFFKDLHQYLNVV-NH2 (SEQ ID NO: 10)] yielded an IC50 in assay [1] of 1670 nM.
On to Ac-YLKFIPLKRAIWLIK-NH2 (also: FITC label, position and linker not given here, Kept apart from m13) [control FITC labeled CPP designed not to bind IRF5 (SEQ ID NO: 23)], for which the binding result in assay [2] is on record as “no binding (tested: 0-10.5 uM His tag IRF5(222-425))”.
Ac-YLKFIPLKRAIWLIK-NH2 [Ac-YLKFIPLKRAIWLIK-NH2 (SEQ ID NO: 23), control CPP designed not to bind IRF5]: the IC50 in assay [3] is above 75000 nM.
